Target: recombinant human dynamin-related protein 1 (Drp1), isoform 1 (human) (UniProt O00429)
Sequence (O00429 whole entry, canonical isoform): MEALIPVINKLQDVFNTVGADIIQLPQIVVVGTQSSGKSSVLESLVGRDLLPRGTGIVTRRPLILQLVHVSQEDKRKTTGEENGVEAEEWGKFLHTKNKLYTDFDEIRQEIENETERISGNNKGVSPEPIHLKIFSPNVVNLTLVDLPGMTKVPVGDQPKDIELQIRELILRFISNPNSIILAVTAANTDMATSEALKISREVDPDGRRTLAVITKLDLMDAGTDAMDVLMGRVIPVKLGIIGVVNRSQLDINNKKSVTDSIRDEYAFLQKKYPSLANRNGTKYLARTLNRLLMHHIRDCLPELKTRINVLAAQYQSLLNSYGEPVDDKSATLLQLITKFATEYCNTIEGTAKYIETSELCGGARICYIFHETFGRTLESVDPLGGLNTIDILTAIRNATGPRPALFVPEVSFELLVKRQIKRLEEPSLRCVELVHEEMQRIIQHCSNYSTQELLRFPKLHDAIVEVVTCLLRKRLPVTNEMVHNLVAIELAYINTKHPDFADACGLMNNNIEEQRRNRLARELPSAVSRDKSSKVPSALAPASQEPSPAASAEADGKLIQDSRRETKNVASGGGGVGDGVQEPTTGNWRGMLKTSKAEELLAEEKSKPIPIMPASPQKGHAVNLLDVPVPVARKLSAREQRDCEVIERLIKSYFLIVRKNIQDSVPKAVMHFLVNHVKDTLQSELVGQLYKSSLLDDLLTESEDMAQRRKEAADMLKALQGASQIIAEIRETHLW

GTPase rate of 100 nM Drp1 with 0, 10, 100 or 1,000 nM Nb (continuous regenerative assay, 37°C); factor of increase after addition of a 10-fold molar excess of D63: 1.7 fold
B1: Drp1-specific nanobody D63 (VHH)
VHH: QVQLVESGGDLVQPGGSLKLSCAVSGVSDSLSSFYLMAWHRQAPGKQREMIADIVSGKATYADSVKGRFTISRDNAENTAYLQMNSLKPEDTAVYYCNVLIQNRSTFQSYWGQGTQVTVSS
